# Numbering of substitutions follows the chain as printed. In names and notes the source's numbering stands.
# B1: L. lactis NOX2: NADH oxidase from Lactococcus lactis, comparison enzyme (protein, UniProt A2RIB7 1-446, looked up)
# NADH oxidase: MKIVVIGTNHAGIATANTLLEQYPGHEIVMIDRNSNMSYLGCGTAIWVGRQIEKPDELFYAKAEDFEAKGVKILTETEVSEIDFANKKVYAKTKSDDEIIEAYDKLVLATGSRPIIPNLPGKDLKGIHFLKLFQEGQAIDAEFAKEKVKRIAVIGAGYIGTEIAEAAKRRGKEVLLFDAENTSLASYYDEEFAKGMDENLAQHGIELHFGELAKEFKANEEGYVSQIVTNKATYDVDLVINCIGFTANSALASDKLATFKNGAIKVDKHQQSSDPDVYAVGDVATIYSNALQDFTYIALASNAVRSGIVAGHNIGGKELESVGVQGSNGISIFGYNMTSTGLSVKAAKKLGLEVSFSDFEDKQKAWFLHENNDSVKIRIVYETKSRRIIGAQLASKSEIIAGNINMFSLAIQEKKTIDELALLDLFFLPHFNSPYNYMTVAALNAK
# B2: NOX5: NADH oxidase V from Lactobacillus plantarum, wild type, 49 kDa, SEQ ID NO: 1 (protein, listed as Lactobacillus plantarum)
# chain: MKVIVIGCTHAGTAAVNQILASNPDTEVTIYERNDNVSFLSCGIALYLGGQVADPQGLFYSSPEQLAKLGATVHMQHDVTDVNTDKHEITVTDLKTGESKTDHYDKLVVTTGSWPVIPPIDGIDSPNVYLCKNWTHAQNLWEAAKPAKRVIVIGGGYIGTELVEAYQKQGKEVTLIDGLPRILNKYLDKEFTDRVEQDFVDHGIKMALNQMVQGFSDDGKEVTVKTDKGSYTADMAILCVGFRPNTGLLKGKVDMNANGSIKTNDYMQTSDPDIYGAGDSVAVHYNPTKKDAYIPLATNAVRQGTLVGLNIFKPTRKYMGTQSTSGLMLFGQTIVSSGMTLEHAQAENVPAAAVTFEDNYRPEFMPTTKPVLMQLVYNPETREILGAQFMSEHDVSQSANVISVMIQNHNTIDDLGFVDMFFQPIYDRPFNYLNLLGQAAIAHAAEAVTE
# B3: G178R/L179R: NADH oxidase derived from Lactobacillus plantarum, G178R/L179R mutant (protein, listed as Lactobacillus plantarum)
# chain: B2 chain with G178R, L179R
# B4: L179R: NADH oxidase derived from Lactobacillus plantarum, L179R mutant (protein, listed as Lactobacillus plantarum)
# chain: B2 chain with L179R
# Key:
# NOX5 [1] = biological target: T1, NOX5 (Lactiplantibacillus plantarum, UniProt F9UUC2); assay: NAD+ product inhibition of NOX5; format: biochemical, Lactobacillus plantarum
# Protocol: (§1) Inhibition effects of NAD^+ and H2O2 were measured by incubating the enzyme with possible inhibitors for 30 minutes before the assay. For NAD^+, 0.2, 0.3, 0.4 and 0.6 mM were chosen and for H2O2, 25, 50, 100 and 200 μM were investigated.
# Possible product inhibitory effects were investigated by incubating the enzyme with different concentrations of NAD^+. […] (FIG. 6).
# NOX5 [2] = biological target: T1, NOX5; conditions: H2O2 up to 200 μM, 30 minutes incubation
# Protocol: as §1
# The effect of H2O2 was studied with a concentration range up to 200 μM, which would be the total amount produced from a standard assay if the enzyme was a hydrogen peroxide producing NADPH oxidase.
# [3] = Total turnover number (TTN), NADH; format: biochemical; set-up: key: TTN = change in NAD(P)H concentration / amount of enzyme; conditions: for TTN with DTT, NADH: 5 mM DTT, 25° C.; for TTN, NADH: no reducing agents
# Protocol: (§2) Standard kinetic assays were performed with small amounts of enzyme. Assays were carried out for two to three hours until there was no more enzymatic conversion of the substrate.
# Total turnover number (TTN) is a measurement of catalyst productivity. For biocatalysts, TTN is defined as the total amount of product produced over the lifetime of an enzyme. […] […] (data not shown).
# (§3) This experiment was repeated to see if the presence of reducing agents had any effect on the total turnover number. The stock solution of enzyme was dialyzed against 250 mL of 10 mM Tris-HCl (pH 7.5) for two hours. The solution was then exchanged and dialyzed for an additional 2 hours. The TTN was then measured with the dialyzed enzyme with and without reducing agents. DTT and β-mercaptoethanol (β-ME) were used at a concentration of 5 mM. The TTN for the sample with no reducing agents, DTT and β-ME were 128,000, 168,000 and 107,000, respectively.
# [4] = NOX5 mutants assayed at the cell lysate level, NADPH activity; format: biochemical
# Protocol: (§4) Standard assays were performed at 25° C. in 100 mM TEA buffer (pH 7.5) with 5 mM DTT in cuvettes with either a 1 cm or 1 mm path length, depending on the concentration of substrate. Initial activity was measured by following the absorbance change using a Beckman Coulter DU 800 UV/Vis spectrophotometer at 340 nm. Activity of the enzyme was calculated using an extinction coefficient of NAD(P)H, ε, as 6.22 mM^−1 cm^−1. Unless otherwise noted, a substrate concentration of 0.2 mM NADPH was used for assays. 1 unit (U) of activity is defined as […].
# (§5) Single mutations were done on residues G178 and L179 into K, R and K, R, H respectively, and double mutations were also investigated with different combinations of the single mutations. The mutation of G178H was excluded due to the fact that the enzyme would then have two histidines next to each other, creating steric hindrance in the binding pocket. The resulting mutants were expressed on small scale and assayed at the cell lysate level.
# [5] = Kinetic parameters of purified NADH oxidases, substrate NADH; format: biochemical; conditions: for Km / kcat, NADH: purified enzyme, excess of oxygen
# Protocol: as §4
# […] This was conducted with an excess of oxygen present in the system. The reaction was initiated by mixing two separate 2× solutions of each the substrate and enzyme. The specific activity was measured, and the kinetic parameters were calculated from that data.
# The data was fitted with four different models: non-linear Michaelis-Menten, Lineweaver-Burk, Eadie-Hofstee and Hanes. Through non-linear fitting, kcat and KM of the wild type were measured to be 211.6 s^−1 and 50.2 μM, respectively with an R^2 of 0.998. (FIG. 5).
# [6] = Amplex Red assay of H2O2 produced during turnover; format: biochemical; conditions: 50 mM sodium phosphate buffer (pH 7.4)
# Protocol: An Amplex Red Hydrogen Peroxide/Peroxidase Assay Kit (Invitrogen) was used to determine the amount of hydrogen peroxide (H2O2) produced during turnover. Various amounts of substrates were reacted and assayed to detect the presence of H2O2. The reactions were carried out in the provided 50 mM sodium phosphate buffer (pH 7.4). Standards for the calibration curve were made with the same reaction buffer.
# To determine whether NOX5 is a water or hydrogen peroxide producing enzyme, an amplex red assay was performed. The presence of H2O2 can be confirmed by incubating the standard assay mixture with amplex red and peroxidase. Produced resorufin can be detected using a fluorescence spectroscopy analysis.
# pH activity profile = format: biochemical; conditions: 25° C., 100 mM buffers
# Protocol: as §4
# Enzyme pH activity profiles were obtained at 25° C. using 100 mM buffers with the following salts: sodium citrate from pH 4.0 to pH 6.5; sodium phosphate from pH 6.0 to pH 8.0; TEA from pH 7.0 to pH 8.0; Tris-HCl from pH 7.0 to pH 9.0; glycine from pH 9.0 to pH 10.0.
# [7] = Temperature stability (30 minutes incubation, assayed at 25° C.); format: physicochemical
# Protocol: Temperature stability was studied by incubating the enzyme at various temperatures for 30 minutes. The enzyme solution was then cooled down and assayed at 25° C. This study covered a temperature range of 15° C. to 55° C.
# [8] = NOX5 mutants assayed at the cell lysate level, NADH activity; format: biochemical
# Protocol: as §4, §5
# [9] = Temperature activity profile; format: biochemical
# Protocol: as §4
# Temperature dependent activity was studied by incubating the enzyme at different temperatures. After one minute of incubation, the standard assay was carried out. A temperature range of 10 to 55° C. was chosen for this study.
# [10] = Total turnover number (TTN), NADPH; format: biochemical
# Protocol: as §2
# Total turnover number (TTN) is a measurement of catalyst productivity. For biocatalysts, TTN is defined as the total amount of product produced over the lifetime of an enzyme. Calculations of TTN were performed by dividing the change of NADPH concentration by the amount of enzyme that was used for each assay. […] (data not shown).
# as §3
# [11] = Kinetic parameters of purified NADH oxidases, substrate NADPH; format: biochemical; conditions: purified enzyme, excess of oxygen
# Protocol: as §4
# Depending on the enzyme, a substrate concentration range from 1.5 μM up to 984 μM was investigated to determine the kcat and KM of NADPH. This was conducted with an excess of oxygen present in the system. The reaction was initiated by mixing two separate 2× solutions of each the substrate and enzyme. The specific activity was measured, and the kinetic parameters were calculated from that data.
Molecule,"TTN with DTT, NADH [3]","TTN, NADH [3]",NADPH activity [4] [U/mg],Km [5] [µM],"kcat, NADH [5] [s⁻¹]",NADH activity [8] [U/mg],Km [11] [µM],"kcat, NADPH [11] [s⁻¹]",other results
NC(=O)c1ccc[n+]([C@@H]2O[C@H](COP(=O)([O-])OP(=O)(O)OC[C@H]3O[C@@H](n4cnc5c(N)ncnc54)[C@H](O)[C@@H]3O)[C@@H](O)[C@H]2O)c1 [NAD^+],–,–,–,–,–,–,–,–,"Ki (NOX5 [1]; 0.2, 0.3, 0.4 and 0.6 mM NAD^+, 30 minutes incubation): 289 µM; inhibition pattern (NOX5 [1]; Hanes-Woolf plot): non-competitive"
"OO [H2O2, hydrogen peroxide]",–,–,–,–,–,–,–,–,change in the initial specific activity of the enzyme (NOX5 [2]): no change
B1,"78,480","38,740",–,–,–,–,–,–,–
B2,–,"128,000",0.00,50.2,211.6,10.0,–,–,"TTN with DTT, NADH ([3]; listed as NOX5 WT): 168,000; TTN with β-mercaptoethanol (β-ME) ([3]; 5 mM β-ME, dialyzed enzyme): 107,000; H2O2 produced, ratio of NADH [6]: 2.63%; pH of maximum activity (pH activity profile): 7.5; Enthalpy of deactivation, ΔH [7]: 1.19 kcal/mol; activity at 55° C. ([7]; 55° C.): inactive; T50^30, temperature that exhibited half of the original activity ([7]; 30 minutes incubation): 45 °C; activation energy, Ea ([9]; Arrhenius model): 7.82 kcal/mol; deactivation energy, Ed ([9]; Arrhenius model): -22.4 kcal/mol; temperature of maximum instantaneous activity ([9]; range 10 to 55° C., one minute of incubation): 40 °C"
B3,"128,000","108,000",6.00,–,34.0,2.64,9.76,114.1,"TTN, NADPH ([10]; no reducing agents): 105,000; TTN with DTT, NADPH ([10]; with DTT): 118,000"
B4,"149,000","181,000",1.76,6.56,122.0,7.32,490,146.4,improvement of kcat/KM (NADH) over the wild-type [5]: more than 4 fold

# — patent US8530213B2, “Compositions and methods for using NADH oxidases” (Georgia Tech Research Corporation, priority 2009, dated 2013)
